Assay results from patent US20030032595A1.

Target: Kv1.3 of rat L6 skeletal muscle cells (rat) (UniProt P15384)
Experiment: cell-based or functional assay

Sequence of Kv1.3 of rat L6 skeletal muscle cells (rat) (P15384 whole entry): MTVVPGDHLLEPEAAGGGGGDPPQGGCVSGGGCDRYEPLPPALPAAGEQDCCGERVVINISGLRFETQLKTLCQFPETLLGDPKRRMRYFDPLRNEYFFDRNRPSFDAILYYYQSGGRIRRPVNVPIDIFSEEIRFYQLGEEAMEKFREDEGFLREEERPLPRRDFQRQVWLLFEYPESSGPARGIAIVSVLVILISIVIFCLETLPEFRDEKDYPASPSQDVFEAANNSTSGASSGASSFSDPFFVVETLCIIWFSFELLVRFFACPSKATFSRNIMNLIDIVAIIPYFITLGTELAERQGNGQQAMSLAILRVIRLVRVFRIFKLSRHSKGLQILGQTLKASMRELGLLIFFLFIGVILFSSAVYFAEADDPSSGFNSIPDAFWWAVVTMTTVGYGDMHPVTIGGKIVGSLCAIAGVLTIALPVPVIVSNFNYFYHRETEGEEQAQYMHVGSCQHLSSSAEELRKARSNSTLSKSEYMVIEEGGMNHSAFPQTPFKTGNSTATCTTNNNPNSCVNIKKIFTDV

margatoxin (from UniProt P40755 1-39) (peptide)
concentration necessary for 1/2 maximal increase in glucose uptake (L6 cells): 53 nM
